The results in this text go back to paper doi:10.1101/2024.10.21.619419 (bioRxiv, 2024).

The series deals with the molecule itself. Kind of series: SEC.

B1: Bxb1 residues 2-500 (enzyme, Mycobacteriophage Bxb1, UniProt Q9B086 2-500, looked up)
chain: RALVVIRLSRVTDATTSPERQLESCQQLCAQRGWDVVGVAEDLDVSGAVDPFDRKRRPNLARWLAFEEQPFDVIVAYRVDRLTRSIRHLQQLVHWAEDHKKLVVSATEAHFDTTTPFAAVVIALMGTVAQMELEAIKERNRSAAHFNIRAGKYRGSLPPWGYLPTRVDGEWRLVPDPVQRERILEVYHRVVDNHEPLHLVAHDLNRRGVLSPKDYFAQLQGREPQGREWSATALKRSMISEAMLGYATLNGKTVRDDDGAPLVRAEPILTREQLEALRAELVKTSRAKPAVSTPSLLLRVLFCAVCGEPAYKFAGGGRKHPRYRCRSMGFPKHCGNGTVAMAEWDAFCEEQVLDLLGDAERLEKVWVAGSDSAVELAEVNAELVDLTSLIGSPAYRAGSPQREALDARIAALAARQEELEGLEARPSGWEWRETGQRFGDWWREQDTAAKNTWLRSMNVRLTFDVRGGLTRTIDFGDLQEYEQHLRLGSVVERLHTGMS
With B1, the “stoichiometry N” value worked out at 2.
